# Assay results reported in the nanobody polyreactivity screen of Harvey et al. (2022).
# Test: yeast display, Sf9 membrane polyspecificity reagent, FACS + sequencing; frameworks hold sequencing errors
# Summary of the method: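 In a synthetic yeast display library (Saccharomyces cerevisiae BJ5465), nanobody expression was induced with galactose for 36–48 hours. FACS gates were set low and high (top ~1%) using anti-HA fluorescence for expression and streptavidin fluorescence for binding of the Sf9 membrane reagent. Each polyreactivity label is drawn from the gate of origin.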
row,Sequence,polyreactivity (PSR sort gate)
1,QVQLEESGGGLVQAGGSLRLSCAASGSTIDYYTMGWYRQAPGKERELVAAISSSGGSTYYADSVKGRFTISRDNAKNTVYLQMNSLKPEDTAVYYCNSDSWYPDHFSYYGPYDYWGQGTQVTVSS,low polyreactivity
2,QVQLEESGGGLVQAGGSLRLSCAASGSTIHSYAMGWYRHAPGKERELVAAITTTGTRTYYADSVKGRFTISRDNAKNTVYLQMNSLKPEDTAVYYCNAQRLQAHRTSRRYGFWGQGTQVTVSS,high polyreactivity
3,QVQLEESGGGLVQAGGSLRLSCAASGSTLNRYPMGWNRHATGKERELVATIRWSGGSTYYADSVKPRFTISRYNEKHTVDLQMNSLKAEDTAVYYCAPDRYYYRGRYYGYTREFDYWGQGTHVTVSS,high polyreactivity
4,QVQLEESGGGLVQAGGSLRLSCAASGSTYYYYAMGWYRQAPGKERELVAAISRSGITYYADSVKGRFTISRDNAKNTVYLQMNSLKPEDTAVYYCAAGRRFDQSMYYWGQGTQVTVSS,high polyreactivity
5,QVQLEESGGGLVQAGGSLRLSCAASGYTFSFYAMGWYRQAPGKERELVAAISRSGGSTYYADSVKGRFTISRDNAKNTVYLQMNSLKPEDTAVYYCAARWPGAYHEYGYWGQGTQVTVSS,high polyreactivity
6,QVQLEESGGGLVQAGGSLRLSCAAYGSIFRFYAMGRYRQAPGKERQFVASITGTGGSTYYADSVKGRFTISRDNAKNTVYLQMNSLKPEDTAVYYCAKTQYSFPRLGYDYWGQGTQVTVSS,high polyreactivity
7,QVQLEESGGGLVQAGGSLRLSCAAYGSIFYKNAMGWYRQAPGKERELVAAITYSGGSTYYADSVKGRFTISRDNAKKTVYLQMNSLKPEDTAVYYCAADIGVYGERREEEYDYWGQGTQVTVSS,low polyreactivity
8,QVQLEESGGGLVQAGGSLRLSCAPSGLTFGGNAMGWYRQAPGKERELVAAISSGGSTNYADSVKGRFTISRDNAKNTDFLNMNSLKPEDTAVYYCAARDRPGNYFTEYGYWGQGTQVTVSS,low polyreactivity
9,QVQLEESGGGLVQAGGSLRLSCASSGRIFQVNTMGWYRQAPGKESELVAAISASVGSTYYADSVKGRFTISRDNAKNTVYLQMNILKPEDTAVYYCAKSLGYSVVRTLSPTGFYYWGQGTQVTVSS,low polyreactivity
10,QVQLEESGGGLVQAGGSLRLSCSASGRIFIKYAMGWYRQAPGKEREFVAAISGRGGSTYYADSVKGRFTISRDNAKNTVYLQMNSLKPEDTAVYYWAKRFFSTGTAAGMYYWGQGTQVTVSS,high polyreactivity
11,QVQLEESGGGLVQAGGSLRLSFAASGRIFRRYAMGWYRQAPVKERELVAAISSRGGRTYYADSVKGRFTISRDNAKNTVYLQMNSLKPDDTAVYYCAAYYFFTDTYGPYEYWGQGTQVTVSS,high polyreactivity
12,QVQLEESGGGLVQAGGSLRLSSAASGYIFDWYAMGWYRQAPGKEREFVAAISGSDGSTYYADSVKGRFTISRDNAKNTVYLQMNSLKPVDTPVYYCAADPYYGDMEYWGQGTQVTVSS,low polyreactivity
13,QVQLEESGGGLVQAGGSLRLTCAASGRIFYRYAMGWYRQAPGKEREFVAAISGTGGSTYYADSVKGRFTISRDNAKNTVNLQMNSLKPEDTAVYYCAAVSYYSSGYDYWGQGTQVTVSS,high polyreactivity
14,QVQLEESGGGLVQAGGSLRLTCDASGLIFSYYAMGWYRQAPGKERELVAAITGSGGTTYYADSVKGRFTISRDNAKNTVLLQMNSLKPEDTAVYYCATPPPEVWQRWYREYDYWGQGTQVTVSS,low polyreactivity
15,QVQLEESGGGLVQAGGSLSLSCAASGFIFPTYAMGWYRQAPGKERELVAVISGGGRTKYADSVKGRFTISRDNAKNTVYLQMNSLKPEDTAVYYCNADYWKGWTKFEYWGQGTQVTLSS,high polyreactivity
16,QVQLEESGGGLVQAGGSLSLSCAASGSIFYGYAMGWYRQAPGKERELVAAITSGGRTYYADSVKGRFTISRDNAKNTVYLQMNSLKPEDTAVYYCNAVYRKTSYGYWGQGTQVTVSS,high polyreactivity
17,QVQLEESGGGLVQAGGTLRLSCAASGSTYVPYAMGWNRQETGKERELVSAIRRRGDSTNYADSVKGRFTISRDNAKNTVYLQMNSLKPEDTAVYYCAVRPYRSACGSVTRGAYYYWGQGTQVTVSS,high polyreactivity
18,QVQLEESGGGLVQAGRSLRLSCAASGRTFNAYTMGWYRQAPGKERELVAAITSSGGNTYYADSVKGRFTISRDNVKNSVSLQINSLKPEDTAVYYCTTVYLYGTHDYWGQGTQVTLSS,low polyreactivity
19,QVQLEESGGGLVQAGVSLRLSCAASGRIFGVYTMGWYRQAPGKERELVAAISRTGGRTYYADSVKGRFTISRDNAKNTVYLQMNSLKPEDTAVYYCAADSRGEDYYYWGQGTQVTVSS,high polyreactivity
20,QVQLEESGGGLVQEGGSLRLICAASGSTFYVYARGWYRQAPGKERELVAAITGSTGSTYYADSVKGRFTISRDNAKNTVELQMNSLKTEVTAFYYCDADFYGVPIIYDYWRQGTQVTVSS,low polyreactivity
21,QVQLEESGGGLVQSGGSLRLSCAASGITFARYTMGWYRQAPGKERELVAAISSAGNTYYGDSVKGRFTISRDNAKNTVYLQMNSLKPEDTAVYYCAREYTYYPRWVGYDAYGEDYWGQGTQVTVSS,low polyreactivity
22,QVQLEESGGGLYQAGGSLRLSCAASGSILDFNAMVWYRQAPGKEMELVASIRWSGGSTYYADSVKGRFTISRDYAKNTVYFQMNSLKPEDTAVYYCAAVTYGYYRSRYSSIQPNEYDYLGQGTQVTVSS,high polyreactivity

row,Sequence,polyreactivity (PSR sort gate)
1,QVQLEESGGGVVQAGGSLRLSCAASGRTFYHKAMGWYRQAPGKETQVVATINSGGSTYADSVKGRFTISRDNAKNTVYLQMNSVKPEDTAVYYCAATFWSRSRFYYGYDYWGQGTQVTVSS,high polyreactivity
2,QVQLEESGGGVVQAGGSLRLSCAASGSIFRKYAMGWYRQAPGKERELVATISWNGGRTHYADSVKGRFTISRDNAKNTVYLLMNSLKPEDTAVYYCNKDAASFRHFYGYGYWGQGTQVTVSS,low polyreactivity
3,QVQLEESGGRLVQAGGSLRLICAASGRIFRFYTMGWYIQAPGKERELVAAITSSGRTYYADSVKGRFTISRDNAKNTVYLQMKSLKPEDTAVYYCNKYFRPRTILPSPGEYLGQGTQVTVSS,high polyreactivity
4,QVQLEESGGRLVQAGGSLRLSCAASGLIFAVYAMGWYRQAPGKERELVASSTGSTYYADSVKGRFTISRDNAKNTVYLQMNSLKPEDHAVYYCAADIIRVLDIPLYYWGQGSQVTVSS,low polyreactivity
5,QVQLEESGGRLVQAGGSLRLSCAASGRTFDGNTMGWYRQAPGKERELVAAITYSGTSTYYADSVKGRFTISRDNAKNTVDVQMNSLKPEDTAVYYCNKPRYYSTYRRYYWGQGTQVTVSS,high polyreactivity
6,QVQLEESGRGLVPAGGSLRLSCAASGFTFDYNTMGWYRQAPGKERELVAAISFRGTSTYYADSVKGRFTISRDNAKNTVYLQMNSLKREDTAVYYCATRDYHVPGRFYYWGQGTQVTVSS,high polyreactivity
7,QVQLEESGRGLVQAGGSLRLSCAASGSTLNYNTMGWYRQAPGKVRELVATISSRGGRTDYADSVKGRFTFSRDNAKNNVYLQMNSLIPEYTAVYSCNALPRVVYTVGQSTFYYWGQGTQVTVSS,high polyreactivity
8,QVQLEESGRGLVQAGGSLRLSCAASVSTCCENAMGWYRQAPGKERELVAAISWGGGSKYYADSVKGRFTISRDNAMNTVYLQMNSLKQEDTAVYYCNADVFDDYGYFESDYWGQGTQVTVSS,low polyreactivity
9,QVQLEESGVGLVQAGGSLRLSCAASGFIFSFYAMGWSRQAPGKERELVAVISKSGGSTYYADSVKGRFTISRDNAKNTVYLQMNSLKPEDTAVYFCAADSTVGRLLSFDYWGQGTQVTVSS,low polyreactivity
10,QVQLEESGVGLVQAGGSLRLSCAASGSIYGYAMGWYRQSPGKQRELVASISSGGSTYYADSVKGRFTISRDNAKNSVYLQMNSLKPEDTAVYYCAARAYSYQAQSYYWGQGTQVTVSS,high polyreactivity
11,QVQLEESRGGLVHAGGSLRLSCAASGYSFYIYAMGWYRQAPGKERELVAAISSSGGRTYYADSVKGRFTISRDNAKNTVYLQMNSLKPEDTAVYYCNALYRYGWLYAPKYNSCGQGTQVTVSS,high polyreactivity
12,QVQLEESRGGLVQAGGSLRLICAASGFTFRQNAMGWYRQAPGKERELVAAISRGGGGTHYADSVKGRFSISRDNAKNTVYLQMNSLKPEDTAVYYCAKRRYPTFVVPVYYWGQGTQVTVSS,high polyreactivity
13,QVQLEESVGGLVQAGVSLRLSCAASGRFFYFYAMGWYRQAPAKERELVASISSGGITIYADSVKGRFTISRDNSKYTVYLQMYSLKREDTAVYYCNAGYASGKYSGVYLYGYLGQGTQVTVSS,low polyreactivity
14,QVQLEETGGGLVQAGGSLPLSCAASGRTFRFYTMGWYRQAPGKERELVAVISNGGSTNYADSVKGRFTISRDNANTTVYLQMNSLKPEDTAVYDCAAGWVWSGNDYYYWGQGTQVTVSS,low polyreactivity
15,QVQLEETGGGLVQAGGSLRLSCAASGLTFGVYAMGRYRQAPGKEMELVAAITWRGDTTYYADSVKGRFTISRYNAKNTVYLQMNSLKPEDSAVYYCAKDVPYRRVRSEYWGQGTQVTVSS,low polyreactivity
16,QVQLESGGGLVQAGGRLRLSCAASGSIIDQYVMGWYRQAPGKERELVAAISRGGRTYYADSVKGRFTISRDNAKNTVYLQMNSLKPVDSSVYYCAARSDVRGFDYWGQGTQVTVSS,low polyreactivity
17,QVQLESGGGLVQAGGSLRLRCEASGITFQLYDMGWYRQAPGKERELVAAINSSGGSTYYADSVKGRFTISRDNAKNTVYLQMNSLKPEDTAVYYCNVGFAPVTNDQPVSTEYDYWGQGTQVTVSS,low polyreactivity
18,QVQLESGGGLVQAGGSLRLSCAASGITFQLYDMGWYRQAPGKERELVAAINSSGGSTYYADSVKGRFTISRDNAKNTVYLQMNSLKPEDTAVYYCNVGFAPVTNDQPVSTEYDYWGQGTQVTVSS,low polyreactivity
19,QVQLEVSGGGLVQAGGSIRLSCAASGSTFGGNAMGWYRQAPRKERELVAAIDSGGSTYADSVKGRFTISRDNAKNTVYLQMNSLKPEDTAVYYCADWFSAYYSLYRHRGYWGQGTQVTVSS,low polyreactivity
20,QVQLGESAGGLVQAGGSLRLSCAATGRTFRWYTMGWYRQAPGKERELVAGIRSTGGSTYYADSVKGRFTISRDNAKNTVYLQMNSLKPEDTEVYYCAIVTLTSRYASYYYWGQGTQVTVSS,high polyreactivity
21,QVQLGESGEGLVQAGGSLRLSCAASGFTCGYYTMGLYRQAPGKERELVAAISSSGGRTYYADSVKGRFTISRDNAKNSVYFQMNSLKPEDTAVYYCNVYYISTDLYYWGQGTQVTVSS,high polyreactivity
